From patent US20240082342A1, “PEPTIDE THERAPEUTICS FOR INCREASING LUNG CELL VIABILITY” (BOARD OF REGENTS, THE UNIVERSITY OF TEXAS SYSTEM, priority 2018, published 2024)

B1: IL-17A: recombinant interleukin 17A used to induce A2C injury in vitro and in mice (protein, UniProt Q62386 26-158, looked up)
Interleukin-17A: AAIIPQSSACPNTEAKDFLQNVKVNLKVFNSLGAKVSSRRPSDYLNRSTSPWTLHRNEDPDRYPSVIWEAQCRHQRCVNAEGKLDHHMNSVLIQQEILVLKREPESCPFTFRVEKMLVGVGCTCVASIVRQAA

Legend:
LECs = settings: in vitro and in vivo; cited from earlier work
[1] = tested on: A2ECs treated with IL-17A; test: A2ECs exposed to IL-17A in vitro; type: cell-based, mouse
Protocol: FIGS. 49A-49B show the role of IL-17A in PTS-induced p53, PAI-1 expression, and apoptosis in A2ECs. (A) IL-17A^−/− mice resist PTS-induced p53 expression and apoptosis in A2ECs. Mice were kept in ambient AIR or exposed to 20 weeks of PTS. A2ECs isolated from WT and IL-17A^−/− mice in AIR or exposed to PTS were analyzed for acetylated/total p53, Sirt1 and activated caspase-3 to assess apoptosis by Western blotting. (B) CSP inhibits IL-17A-induced p53 and PAI-1 expression and apoptosis in A2ECs in vitro. A2ECs isolated from WT mice were treated with PBS or IL-17A (100 ng/ml) in the presence or absence of CSP or control peptide, CP for 24 h in culture dishes. A2EC lysates were immunoblotted for p53, PAI-1, Cl./total caspase-3 and β-actin. WT mice exposed to IL-17A (FIG. 48D) and PTS (FIG. 46A) induce p53 acetylation and Cav1 expression, while inhibiting Sirt1 in A2ECs.
FIGS. 58A-58B show a 7-amino acid fragment of CSP, CSP7 Inhibits IL-17A-induced A2EC apoptosis. (A) Fragments of CSP were synthesized as shown. (B) A2ECs were treated with CSP or its fragments, or CP, 2 h after exposure of cells to IL-17A. A2EC lysates were immunoblotted for acetylated/total p53 and active/total caspase-3 24 h after IL-17A exposure. β-actin levels were evaluated to assess equal loading.
Increased p53 and apoptosis in A2ECs of mice exposed to PTS or IL-17A provided evidence that PTS acts by increasing IL-17A. To confirm that increased IL-17A contributes to the induction of p53 and PAI-1 expression, and apoptosis in A2ECs during PTS-induced lung injury, IL-17A-deficient mice were exposed to 20 weeks of PTS and control mice were kept in ambient air. A2ECs were tested for p53^AC, p53 and Sirt1 expression, and apoptosis. The responses were compared with changes in A2ECs isolated from WT mice exposed to 20 weeks of PTS or AIR. There was marked induction of p53^AC and p53 levels, and apoptosis with parallel suppression of Sirt1 expression in WT mice exposed to 20 weeks of PTS. […] To confirm mitigation of PTS induced lung injury by CSP or CSP7 involves suppression of IL-17A-induced p53, PAI-1 and apoptosis, A2ECs isolated from WT mice were next treated with IL-17A (100 ng/ml) with or without CSP, CSP7 or CP. Control cells were treated with vehicle (PBS) alone. The A2EC lysates were tested for p53 and p53-mediated downstream induction of PAI-1, and apoptosis. […] Further, induction of miR-34a increased p53 and apoptosis in A2ECs without exposure to tobacco smoke, while inhibition of miR-34a using miR-34a antisense (miR-34a-AS) reduced cigarette smoke induced p53 expression and apoptosis. Results of both in vitro and in vivo experiments support an intricate link between miR-34a, p53^AC, p53 and p53-mediated induction of PAI-1 expression, and A2EC apoptosis during PTS lung injury.

[2] = tested on: ATII cells and BALF of IL-17A treated mice; test: IL-17A-induced lung injury in mice; type: in vivo, mouse; settings: WT mice exposed to recombinant IL-17A, 24 h
Protocol: IL-17A is induced in passive tobacco smoke (PTS) exposed lung injury. […] Further, IL-17A induced ^p15Sp53 was inhibited following treatment of mice CSP7 when compared with those treated with saline and control peptide. To further test whether IL-17A induced ^p15Sp53 alters PAI-1 expression and ATII apoptosis, ATII cells of IL-17A treated mice for PAI-1 and apoptotic markers were analyzed. IL-17A induced the expression of PAI-1 and cl.Cas-3, and inhibited Sirt-1 expression in ATII cells. […] In addition, CSP7 treatment found to inhibit serine phosphorylation of p53 by neutralizing elevated IL-17A due to PTS exposure.
To test the importance of miR-34a mediated deacetylation of p53 IL-17A or PTS induced lung injury, miR34a conditional knockout mice were treated with tamoxifen. miR34a conditional knockout mice treated with IL-17A (3 μg/mice) was administered with CSP7 and CP a day later. ATII cells isolated from these mice were screened for PAI-1, Sirt-1 and apoptotic markers. […] Further, CSP7 treatment had little effect in miR-34a^cKo mice since these mice resist IL-17A or PTS injury.

BAL cells = test: BAL cell counts in mice treated with IL-17A or Pre-miR-34a; type: in vivo, mouse

Molecule	BLM-induced apoptosis of LECs and subsequent pulmonary fibrosis (LECs)	PAI-1 expression or apoptosis ([1]; A2ECs lacking p53 expression)	p53 and PAI-1 expression and apoptosis ([1]; mouse and human A2ECs, IL-17A alone)	total and acetylated p53, apoptosis and Cav1 expression in A2ECs [2]	percentage of PMN in total BAL cells (BAL cells)	total BAL cells (BAL cells)
NYHYLESSMTALYTLGH (listed as Homo sapiens) [PP-2, 17 residue peptide]	protected LECs from BLM-induced apoptosis in vitro and in vivo					
B1		failed to induce PAI-1 expression or apoptosis	induced expression of both p53 and PAI-1, and also apoptosis	marked increase in total and acetylated p53, apoptosis and induced Cav1 expression	11.27%	two-fold increase
